± gives the standard deviation of the averaged measurements.
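Further: ATP exposure 15 min at 22 °C before imaging.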

The test system of this data set is ATP. As to the kind of experiment: switch fluorescence ratio, 500 uM ATP over buffer (Cy3 cluster intensity, sum of 5 cycles each) (fold (ratio)); higher = stronger signal-on switching upon ATP binding; sequences stand for … in TCGTCGGCAGCGTCAGATGTGTATAAGAGACAGTTTTTTTTTTTTTTTTTTTTTTTTT…TC. The following applies: aptamer strand: ATP DNA aptamer (quencher-CACCTGGGGGAGTATTGCGGAGGAAGG + anchor), 100 nM annealed; ATP concentration: 500 uM. The essentials: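 After annealing to 100 nM quencher-labelled ATP aptamer, Cy3-labelled switching-strand clusters on a modified Illumina MiSeq flow-cell were imaged in selection buffer. A second image followed after 15 min with 500 uM ATP at 22 °C, and five such buffer/ATP cycles were done, each separated by NaOH stripping and re-annealing. The fluorescence ratio, averaged per switch-domain sequence, is summed target-cycle over summed buffer-cycle Cy3 intensity per cluster, with clusters outside 100-1000 RFU excluded.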
Regarding TAAAATGCGT, the switch fluorescence ratio turned out to be 0.99954 ± 0.00034.
In the case of AGGGCGTTAG it was 1.01 ± 0.044.
In the case of AAAATTGGGA it was 1.01 ± 0.035.
In the case of CGGGGTAAGT it was 1.01 ± 0.021; in that of GGTTTGTGTG, 0.991 ± 0.018; in that of ATCGGTGGTG, 0.9839 ± 0.0058.
Consider TAGTAAGGGC, for which the switch fluorescence ratio is 1.02 ± 0.033.
As for GCAGTATAGC, the switch fluorescence ratio turned out to be 0.99 ± 0.011.
For AATACGGGG, the switch fluorescence ratio amounted to 0.985 ± 0.016.
The value for TTCAGTACCT was 1.19 ± 0.016.
In the case of TCGATCCAAC it was 1.064 ± 0.0065.
The value for GGATGGATGG was 0.993 ± 0.082; that for TTACGGAT was 1.06 ± 0.019; that for GAATGTAGTC was 1.01 ± 0.013.
In the case of ACTAAGGATT, the switch fluorescence ratio was 1.02 ± 0.018.
In the case of TCCGTTTTGG it was 1.03 ± 0.066.
The value for TGGGGTCGTG was 0.964 ± 0.022; that for AGAAAGGTTG was 0.984 ± 0.019; that for GGTTTCCCTG was 0.9984 ± 0.0033.
In the case of TGCTATACTT it was 1.46 ± 0.15.
For GGGTTTATTT, the switch fluorescence ratio was 0.982 ± 0.014.
With CAGTACTCTG, the switch fluorescence ratio amounted to 0.986 ± 0.031.
The value for ACATGGAGAG was 0.985 ± 0.052; that for TGGGTTTCTG was 1.02 ± 0.021.
With GGTGGCAAAT, the switch fluorescence ratio worked out at 1.01 ± 0.013.
Regarding CGTAACCCGT, the switch fluorescence ratio came out at 0.98 ± 0.033.
In the case of ACTAGAACAT it was 1.052 ± 0.0042.
For the sequence GGGAAGCGCC, the switch fluorescence ratio came to 0.9967 ± 0.0032.
The value for GCGGCCTTGT was 1.04 ± 0.011.
In the case of CACGGATAAA it was 1.04 ± 0.022; in that of CTTTTAGGTG, 1.11 ± 0.12; in that of ACAGTTGTAT, 1.015 ± 0.01.
GTTAGGCCCT: the switch fluorescence ratio was determined as 1 ± 0.014.
In the case of CGCGTGAAGA it was 1.12 ± 0.11.
The value for AACAAATGAT was 1.007 ± 0.0024; that for TGAAAAGGTT was 0.983 ± 0.023.
The value for TCGCTTTTTT was 1.03 ± 0.068; that for AAGTCCACAC was 1.05 ± 0.041.
Take GAGGTAAGGG: the switch fluorescence ratio was 0.998 ± 0.029.
The value for ATATGTGGTG was 1.02 ± 0.028.
With TATTTGAATG, the switch fluorescence ratio came out at 1.01 ± 0.028.
As for CTAGGGGGTC, the switch fluorescence ratio was 0.993 ± 0.046.
In the case of GCAATAATGC it was 1.603 ± 0.014; in that of GGGACGGAAA, 1.11 ± 0.16.
For ATTTTACTAA, the switch fluorescence ratio turned out to be 1.05 ± 0.021.
The value for CGTAATTATG was 1.01 ± 0.03; that for GTTGGAGGTG was 1.06 ± 0.012.
For the sequence GAGTTTGCGT, the switch fluorescence ratio came out at 1.03 ± 0.015.
TCAAACATTT: the switch fluorescence ratio stood at 1.016 ± 0.0076.
The value for TGCGTTCGTC was 0.993 ± 0.015; that for TGTTGTTAAA was 0.982 ± 0.012; that for TTCAGAAGCG was 1.01 ± 0.028.
The value for GATGTAATCT was 1.02 ± 0.025.
For CGTGCGGCTG, the switch fluorescence ratio worked out at 1.028 ± 0.0066.
In the case of TGGGGAGAGC it was 0.992 ± 0.019.
The value for AGGACAGATA was 1.01 ± 0.017; that for AGGGGTTATG was 1 ± 0.021.
Regarding CGGTGGTGTG, the switch fluorescence ratio is 0.963 ± 0.048.
In the case of ACGGTAAGTG it was 1.02 ± 0.042; in that of GCCATCGTCG, 1.01 ± 0.044; in that of GCTTGAGGAA, 0.982 ± 0.034.
As for CGATAAGAAG, the switch fluorescence ratio was determined as 1.01 ± 0.017.
With TAAAGATGAT, the switch fluorescence ratio turned out to be 1.01 ± 0.012.
The value for AGCGGAGTAT was 0.998 ± 0.063; that for CCTAGGGTTC was 0.984 ± 0.01.
The value for TGTGAGGGGA was 1.01 ± 0.035; that for AAAGACAAAT was 0.999 ± 0.042; that for TTATCATGGG was 0.993 ± 0.047.
In the case of GGGGAAGAAA it was 0.995 ± 0.027; in that of TTACCAGCTT, 1.02 ± 0.063.
Turning to AATCGTGGGG, the switch fluorescence ratio turned out to be 0.975 ± 0.017.
In the case of CGTAGTTTGT it was 1.03 ± 0.076; in that of CCCGGTGTGT, 1.65 ± 0.025.
The value for ATTTATGATA was 0.99 ± 0.008; that for TCGGGATCTG was 0.997 ± 0.018.
Turning to CGTTAAGTTT, the switch fluorescence ratio stood at 0.9804 ± 0.0066.
The value for TAATTTAAAA was 1.05 ± 0.12; that for GTTGGACAGA was 1.03 ± 0.015.
Regarding TGGATGGGGG, the switch fluorescence ratio is 0.992 ± 0.022.
The value for TTTGGTCGGG was 1.01 ± 0.03; that for TTTGGGGGCG was 0.983 ± 0.081.
In the case of AGTGCTAGGG it was 1 ± 0.024; in that of GAGTACGAGT, 1.0098 ± 0.001.
In the case of AAAGTCTAAA it was 0.977 ± 0.015.
ATGTGTCTGT: the switch fluorescence ratio stood at 1.01 ± 0.017.
With GCAGTCCCGT, the switch fluorescence ratio is 1.03 ± 0.015.
The value for GGAATCCGTA was 1.05 ± 0.046; that for ACGTGTGAC was 1 ± 0.023.
The value for GAAGAGATGT was 1.01 ± 0.021.
The value for ACAGCCTGCC was 1.3 ± 0.07.
For the sequence GCGGATAGAA, the switch fluorescence ratio was 1.04 ± 0.017.
In the case of AGTATGGCGG it was 0.975 ± 0.068.
In the case of AAATACGGGA it was 1.17 ± 0.13; in that of ATCCCCGGCC, 1.03 ± 0.022; in that of ATGGTAAGAC, 1.14 ± 0.062.
As for TTTCGGTCAT, the switch fluorescence ratio came out at 1.02 ± 0.029.
In the case of ATTCTATCGT it was 1.01 ± 0.015.
The value for AATAGGCGCG was 1.02 ± 0.014.
Turning to TATTTATTAG, the switch fluorescence ratio is 0.991 ± 0.029.
For CAGGGACGTT, the switch fluorescence ratio amounted to 0.987 ± 0.02.
As to CGTACGGTAA, the switch fluorescence ratio stood at 1.09 ± 0.042.
With ACTGATGGGT, the switch fluorescence ratio turned out to be 1 ± 0.013.
In the case of ATGTGTAAAA it was 0.99 ± 0.013; in that of GGTGCAGGTG, 1.74 ± 0.59.
In the case of ATGTGGGGTA it was 0.985 ± 0.026; in that of ATACTATTTT, 0.996 ± 0.023.
In the case of GAGGGTTGGG it was 1.06 ± 0.045; in that of GATGGAGTTT, 1.03 ± 0.011.
For GGCCTGCCAT, the switch fluorescence ratio came to 0.9813 ± 0.0095.
On to TCCTGTGCTG, for which the switch fluorescence ratio was determined as 1.09 ± 0.043.
For TTATTTTAAC, the switch fluorescence ratio is 0.981 ± 0.04.
Regarding TATGGTGGAG, the switch fluorescence ratio came out at 0.981 ± 0.02.
The value for TCTCATTGGG was 0.9875 ± 0.004; that for GTGTAAACGT was 1.04 ± 0.05; that for ATCGCAGGCG was 1.035 ± 0.0068.
In the case of GGGCCGATCA it was 0.997 ± 0.036.
Consider GGTTTCTAGG, for which the switch fluorescence ratio stood at 0.99311 ± 0.00018.
GGATCTACCG: the switch fluorescence ratio was 1.01 ± 0.032.
GTCTGATTTG: the switch fluorescence ratio was 0.999 ± 0.023.
The value for GCGATCCCCT was 1.77 ± 0.72.
